± gives the uncertainty stated by the source.

26 sequences from the supplement of paper PMC9732359 can be followed below.

The data set in a line: protein stability index of a GFP-peptide fusion (yeast GPS) (PSI 1-4); higher = more stable; sorted into four equal gates, so the index is relative within each strain. The gist of the method:
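Plasmids isolated from each sorting gate were PCR-amplified and Illumina-sequenced, and barcodes assigned the reads to strains. The gates, four of equal size, were set by GFP/Cherry fluorescence ratio on mid-log cultures in leucine-free medium. These cultures were yeast carrying a pooled library of tiled 17-residue yeast protein peptides fused downstream of GFP on a plasmid that also expresses Cherry. The protein stability index is the sum of every gate's read frequency times its gate number.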

For SVRGAIVGPDLAVLALV [RPS6A], the protein stability index is 1.18 ± 0.041 (doa10∆), 1.46 ± 0.06 (pdr5∆), 1.14 ± 0.11 (san1∆) and 1.38 ± 0.045 (ubr1∆).

In the case of VTLDFGNIFADLLPNSF [SMC2], the protein stability index by setting is: (doa10∆) 2.8 ± 0.1; (pdr5∆) 2.86 ± 0.067; (san1∆) 3.07 ± 0.07; (ubr1∆) 2.91 ± 0.064.

With EDVVAISSRTFGQRAVL [RPS0A], the protein stability index worked out at 3.3 ± 0.11 (doa10∆), 3.03 ± 0.056 (pdr5∆), 3.02 ± 0.085 (san1∆) and 3.1 ± 0.047 (ubr1∆).

Regarding NNPKVKTSKRTKRWYKN [RPS11A], the protein stability index is, setting by setting: (doa10∆) 3.36 ± 0.091; (pdr5∆) 3.28 ± 0.094; (san1∆) 3.21 ± 0.12; (ubr1∆) 3.19 ± 0.087.

Take LSKVSLLTPDIGAVYSG [PRE8]: the protein stability index reads like this: (doa10∆) 1.68 ± 0.055; (pdr5∆) 1.99 ± 0.073; (san1∆) 1.73 ± 0.09; (ubr1∆) 2.07 ± 0.071.

LSGKFSTIPTRENGKGG [ROX3]: the protein stability index runs as follows: (doa10∆) 3.28 ± 0.23; (pdr5∆) 3.22 ± 0.11; (san1∆) 3.01 ± 0.063; (ubr1∆) 3.1 ± 0.23.

In the case of RFSYSPPKEGNYEIVFD [YMR129W/POM152], the protein stability index (doa10∆) turned out to be 3.05 ± 0.29, the protein stability index (pdr5∆) stood at 3.24 ± 0.18, the protein stability index (san1∆) was 3.13 ± 0.071 and the protein stability index (ubr1∆) was 3.45 ± 0.16.

QVILPMSPNHGTFGGDG [FAS2]: the protein stability index came to 3.12 ± 0.064 (doa10∆), 3.1 ± 0.057 (pdr5∆), 3.18 ± 0.061 (san1∆) and 3.07 ± 0.048 (ubr1∆).

Consider NKGAKAEDVALNEQVKK [NAS6], for which the protein stability index was 2.98 ± 0.2 (doa10∆), 2.96 ± 0.19 (pdr5∆), 2.77 ± 0.15 (san1∆) and 3.1 ± 0.075 (ubr1∆).

With VDSGSNDAMAGGFTAYG [RPO21], the protein stability index amounted to 3.26 ± 0.16 (doa10∆) and 3.37 ± 0.26 (san1∆).

In turn, HFENAKVIDLDTKLKAH [YIL149C/MLP2] had a protein stability index (doa10∆) of 2.62 ± 0.073, a protein stability index (pdr5∆) of 2.73 ± 0.086, a protein stability index (san1∆) of 2.09 ± 0.11 and a protein stability index (ubr1∆) of 2.48 ± 0.073.

Consider WQSGLKMYDYEEKEESN [RPN11], for which the protein stability index by setting is: (doa10∆) 2.98 ± 0.13; (pdr5∆) 3.26 ± 0.13; (san1∆) 2.93 ± 0.1; (ubr1∆) 3 ± 0.16.

In the case of VEDDLVTVQTELNEEKK [SMC2], the protein stability index by setting is: (doa10∆) 3.23 ± 0.16; (pdr5∆) 2.55 ± 0.078; (san1∆) 2.55 ± 0.08; (ubr1∆) 2.85 ± 0.087.

Turning to VICSVTGPIEPKARQEL [RRP46], the protein stability index was determined as 2.79 ± 0.081 (doa10∆), 3.06 ± 0.11 (pdr5∆), 2.75 ± 0.051 (san1∆) and 2.88 ± 0.054 (ubr1∆).

As for SEEINQYVTQIEQEKQE [PRE6], the protein stability index was 2.68 ± 0.075 (doa10∆), 1.76 ± 0.063 (pdr5∆), 2.59 ± 0.085 (san1∆) and 2.62 ± 0.086 (ubr1∆).

Regarding SILGKFCPIVEEIVSNS [YCS4], the protein stability index worked out at 1.95 ± 0.091 (doa10∆), 1.51 ± 0.12 (pdr5∆), 1.6 ± 0.14 (san1∆) and 1.55 ± 0.066 (ubr1∆).

PCVEDGFVIQDRETALD [RPB2]: the protein stability index is, setting by setting: (doa10∆) 3.17 ± 0.088; (pdr5∆) 3.18 ± 0.11; (san1∆) 3.16 ± 0.19; (ubr1∆) 3.2 ± 0.078.

DPDIPMTIDLEPIEESS [IRR1]: the protein stability index by setting is: (doa10∆) 3.06 ± 0.086; (pdr5∆) 3.45 ± 0.1; (san1∆) 3.01 ± 0.13; (ubr1∆) 3.15 ± 0.11.

Regarding GEKNSDDYSNEDNEMLE [YJR042W/NUP85], the protein stability index came out at 2.06 ± 0.29 (san1∆) and 1.89 ± 0.14 (ubr1∆).

The sequence SSLEARYFFYLSKINAI [RPN3] showed a protein stability index (doa10∆) of 1.74 ± 0.05, a protein stability index (pdr5∆) of 2.17 ± 0.064, a protein stability index (san1∆) of 1.95 ± 0.1 and a protein stability index (ubr1∆) of 1.75 ± 0.042.

As to NNNGLPQNGNINNNINI [GAL11], the protein stability index runs as follows: (doa10∆) 3.13 ± 0.05; (pdr5∆) 3.29 ± 0.071; (san1∆) 3.39 ± 0.044; (ubr1∆) 3.11 ± 0.048.

On to NRDPVKHAEFDLSLLGY [SIR2], for which the protein stability index (pdr5∆) is 2.75 ± 0.21.

QSRVPTSLTSIKWENAF [PRP8]: the protein stability index was 3.21 ± 0.077 (doa10∆), 3.3 ± 0.11 (pdr5∆), 3.44 ± 0.072 (san1∆) and 3.18 ± 0.048 (ubr1∆).

Regarding SPFGGSSHAKGIVLEKL [RPS23A], the protein stability index came to 3.19 ± 0.096 (doa10∆), 3.14 ± 0.074 (pdr5∆), 3.12 ± 0.067 (san1∆) and 3.17 ± 0.063 (ubr1∆).

On to ILNDIETLEHNPVALEQ [BRR2], for which the protein stability index is, setting by setting: (doa10∆) 2.95 ± 0.08; (pdr5∆) 3.25 ± 0.1; (san1∆) 3.18 ± 0.079; (ubr1∆) 3.13 ± 0.077.

INIQKKLEPKEIVRDIL [SIR4] gave a protein stability index (doa10∆) of 3.05 ± 0.085, a protein stability index (pdr5∆) of 3.19 ± 0.12, a protein stability index (san1∆) of 2.85 ± 0.12 and a protein stability index (ubr1∆) of 2.86 ± 0.11.
